From article PMC10783490, “Biochemical and cellular insights into the Baz2B protein, a non-catalytic subunit of the chromatin remodeling complex” (Nucleic Acids Research, 2023)

Assays:
BRD Baz2B = biological target: T1, BRD Baz2B (Homo sapiens, UniProt Q9UIF8 2060-2164); experiment: EMSA; up to 112 uM, one pot; EMSA: 20 mM HEPES pH 7.5, 30 mM KCl, 1 mM EDTA, 10 mM (NH4)2SO4, 1 mM DTT, 4 C, 10 nM probe; MST: same plus 0.1 ug/ml BSA, 5 nM probe, 25 C; GST-AT-hook and bromodomain EMSA as in cited refs; conditions: protein: recombinant, tags: His6
T1 sequence: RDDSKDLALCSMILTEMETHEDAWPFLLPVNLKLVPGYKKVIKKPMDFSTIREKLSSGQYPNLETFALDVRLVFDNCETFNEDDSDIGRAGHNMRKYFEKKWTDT

BRD Brg1 [1] = biological target: T2, BRD Brg1 (UniProt P51532 1453-1564); experiment: EMSA; one pot with triplex and TFO; EMSA: 20 mM HEPES pH 7.5, 30 mM KCl, 1 mM EDTA, 10 mM (NH4)2SO4, 1 mM DTT, 4 C, 10 nM probe; MST: same plus 0.1 ug/ml BSA, 5 nM probe, 25 C; GST-AT-hook and bromodomain EMSA as in cited refs; conditions: protein: recombinant; tags: His6; blunt
T2 sequence (P51532 1453-1564): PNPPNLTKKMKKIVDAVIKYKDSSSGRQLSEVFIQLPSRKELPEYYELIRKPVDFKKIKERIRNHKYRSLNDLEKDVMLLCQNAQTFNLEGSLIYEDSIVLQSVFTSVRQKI

GST-AT1-AT2 Baz2A = biological target: T3, GST-AT1-AT2 Baz2A (UniProt Q91YE5 641-674); experiment: EMSA; 1.25 uM DNA, 3.6 or 14.4 uM protein; EMSA: 20 mM HEPES pH 7.5, 30 mM KCl, 1 mM EDTA, 10 mM (NH4)2SO4, 1 mM DTT, 4 C, 10 nM probe; MST: same plus 0.1 ug/ml BSA, 5 nM probe, 25 C; GST-AT-hook and bromodomain EMSA as in cited refs; conditions: protein: recombinant; tags: GST; label: none (SybrSafe); blunt
T3 chain: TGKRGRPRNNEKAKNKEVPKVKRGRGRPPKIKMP

BRD Brg1 [2] = biological target: T2, BRD Brg1; experiment: EMSA; one pot with duplex and TFO; EMSA: 20 mM HEPES pH 7.5, 30 mM KCl, 1 mM EDTA, 10 mM (NH4)2SO4, 1 mM DTT, 4 C, 10 nM probe; MST: same plus 0.1 ug/ml BSA, 5 nM probe, 25 C; GST-AT-hook and bromodomain EMSA as in cited refs; conditions: protein: recombinant; tags: His6; triplex, third strand TFO
BRD Brg1 [3] = biological target: T2, BRD Brg1; experiment: EMSA; one pot with triplex and duplex; EMSA: 20 mM HEPES pH 7.5, 30 mM KCl, 1 mM EDTA, 10 mM (NH4)2SO4, 1 mM DTT, 4 C, 10 nM probe; MST: same plus 0.1 ug/ml BSA, 5 nM probe, 25 C; GST-AT-hook and bromodomain EMSA as in cited refs; conditions: protein: recombinant; tags: His6
TAM-AT1-AT2 Baz2B R765E = biological target: T4, TAM-AT1-AT2 Baz2B R765E (Homo sapiens, UniProt Q9UIF8 721-884, R765E); experiment: EMSA; EMSA: 20 mM HEPES pH 7.5, 30 mM KCl, 1 mM EDTA, 10 mM (NH4)2SO4, 1 mM DTT, 4 C, 10 nM probe; MST: same plus 0.1 ug/ml BSA, 5 nM probe, 25 C; GST-AT-hook and bromodomain EMSA as in cited refs; conditions: protein: recombinant; tags: His6; blunt
T4 sequence: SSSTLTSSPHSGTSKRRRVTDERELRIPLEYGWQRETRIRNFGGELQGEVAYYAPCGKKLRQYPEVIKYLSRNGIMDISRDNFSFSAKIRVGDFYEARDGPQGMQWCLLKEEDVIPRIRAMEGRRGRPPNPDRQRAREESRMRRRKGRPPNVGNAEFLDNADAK

TAM-AT1-AT2 Baz2B Q767A = biological target: T5, TAM-AT1-AT2 Baz2B Q767A (Homo sapiens, UniProt Q9UIF8 721-884, Q767A); experiment: as above; conditions: protein: recombinant; tags: His6; blunt
T5 sequence: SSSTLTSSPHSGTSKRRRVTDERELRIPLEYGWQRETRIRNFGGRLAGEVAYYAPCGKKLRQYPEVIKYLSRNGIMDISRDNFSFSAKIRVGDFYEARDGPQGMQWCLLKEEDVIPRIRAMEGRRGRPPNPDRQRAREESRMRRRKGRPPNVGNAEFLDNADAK

TAM-AT1-AT2 Baz2B R781E = biological target: T6, TAM-AT1-AT2 Baz2B R781E (Homo sapiens, UniProt Q9UIF8 721-884, R781E); experiment: as above; conditions: protein: recombinant; tags: His6; blunt
T6 sequence: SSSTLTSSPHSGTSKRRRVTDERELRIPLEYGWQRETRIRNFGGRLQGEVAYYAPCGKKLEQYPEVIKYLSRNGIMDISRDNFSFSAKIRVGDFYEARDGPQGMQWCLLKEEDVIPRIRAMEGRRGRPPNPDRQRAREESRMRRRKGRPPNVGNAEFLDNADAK

TAM-AT1-AT2 Baz2B [4] = biological target: T7, TAM-AT1-AT2 Baz2B (Homo sapiens, UniProt Q9UIF8 721-884); experiment: as above; conditions: protein: recombinant; tags: His6; blunt
T7 sequence: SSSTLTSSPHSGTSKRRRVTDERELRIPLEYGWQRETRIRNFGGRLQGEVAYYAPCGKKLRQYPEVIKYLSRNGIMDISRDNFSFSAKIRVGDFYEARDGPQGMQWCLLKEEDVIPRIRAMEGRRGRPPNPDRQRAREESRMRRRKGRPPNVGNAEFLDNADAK

TAM-AT1-AT2 Baz2B R837E = biological target: T8, TAM-AT1-AT2 Baz2B R837E (Homo sapiens, UniProt Q9UIF8 721-884, R837E); experiment: as above; conditions: protein: recombinant; tags: His6; blunt
T8 sequence: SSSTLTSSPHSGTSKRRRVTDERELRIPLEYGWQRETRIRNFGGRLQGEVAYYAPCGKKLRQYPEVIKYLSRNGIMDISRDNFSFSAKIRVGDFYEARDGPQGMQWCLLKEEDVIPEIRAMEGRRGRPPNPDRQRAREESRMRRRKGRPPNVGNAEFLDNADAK

TAM-AT1-AT2 Baz2B L766A = biological target: T9, TAM-AT1-AT2 Baz2B L766A (Homo sapiens, UniProt Q9UIF8 721-884, L766A); experiment: as above; conditions: protein: recombinant; tags: His6; blunt
T9 sequence: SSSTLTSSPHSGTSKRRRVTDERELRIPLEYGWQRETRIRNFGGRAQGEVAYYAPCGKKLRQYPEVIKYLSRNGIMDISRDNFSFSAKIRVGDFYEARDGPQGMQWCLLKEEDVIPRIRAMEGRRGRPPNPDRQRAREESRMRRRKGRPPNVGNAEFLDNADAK

TAM Baz2B = biological target: T10, TAM Baz2B (Homo sapiens, UniProt Q9UIF8 721-843); experiment: as above; conditions: protein: recombinant; tags: His6; blunt
T10 sequence: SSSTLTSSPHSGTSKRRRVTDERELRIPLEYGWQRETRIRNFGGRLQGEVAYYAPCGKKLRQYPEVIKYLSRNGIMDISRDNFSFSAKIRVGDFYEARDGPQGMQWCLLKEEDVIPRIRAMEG

TAM-AT1-AT2 Baz2B R760E = biological target: T11, TAM-AT1-AT2 Baz2B R760E (Homo sapiens, UniProt Q9UIF8 721-884, R760E); experiment: as above; conditions: protein: recombinant; tags: His6; blunt
T11 sequence: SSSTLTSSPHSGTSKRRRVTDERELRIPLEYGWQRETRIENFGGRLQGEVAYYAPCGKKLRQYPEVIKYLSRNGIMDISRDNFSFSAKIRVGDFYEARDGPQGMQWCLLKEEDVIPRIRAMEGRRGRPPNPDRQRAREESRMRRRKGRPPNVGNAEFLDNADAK

TAM-AT1-AT2 Baz2B [5] = biological target: T7, TAM-AT1-AT2 Baz2B; experiment: EMSA; mutant series; EMSA: 20 mM HEPES pH 7.5, 30 mM KCl, 1 mM EDTA, 10 mM (NH4)2SO4, 1 mM DTT, 4 C, 10 nM probe; MST: same plus 0.1 ug/ml BSA, 5 nM probe, 25 C; GST-AT-hook and bromodomain EMSA as in cited refs; conditions: protein: recombinant; tags: His6; blunt

B1: En3_D 29 bp dsDNA (dsDNA)
DNA 1: TCTTTTTTTTTTTTTTTCTTTTTTCCTCC
DNA 2: GGAGGAAAAAAGAAAAAAAAAAAAAAAGA
BRD Baz2B; blunt
  binding result: no binding
BRD Brg1 [1]
  binding result: binds

B2: rDNA enhancer (En dsDNA) (dsDNA)
DNA 1: TGGATCTTTTTTTTTTTTTTTCTTTTTCCTCCA
DNA 2: TGGAGGAAAAAGAAAAAAAAAAAAAAAGATCCA
GST-AT1-AT2 Baz2A
  binding result: binds

B3: DNA triplex En3_D + TFO #5 (structured_DNA)
DNA 1: TCTTTTTTTTTTTTTTTCTTTTTTCCTCC
DNA 2: GGAGGAAAAAAGAAAAAAAAAAAAAAAGA
DNA 3: GGAGGAAAAAAGAAAAAAAAAAAAAAAGA
BRD Baz2B; triplex, third strand TFO
  binding result: no binding
BRD Brg1 [2]
  binding result: binds

## GGAGGAAAAAAGAAAAAAAAAAAAAAAGA (ssDNA) [TFO #5 (29 nt ssDNA)]
BRD Baz2B
  binding result: no binding
BRD Brg1 [3]
  binding result: no binding

B4: 45 bp dsDNA FLP015/FLP016 (dsDNA)
DNA 1: ATCAGTTCTCCGGGTTGTCAGGTCGACCAGTTGTTCCTTTGAGGT
DNA 2: ACCTCAAAGGAACAACTGGTCGACCTGACAACCCGGAGAACTGAT
TAM-AT1-AT2 Baz2B R765E
  Kd: 30.8 ± 6.9 nM
TAM-AT1-AT2 Baz2B Q767A
  Kd: 440 ± 256 nM
TAM-AT1-AT2 Baz2B R781E
  Kd: 232 ± 101 nM
TAM-AT1-AT2 Baz2B [4]
  Kd: 82.2 nM
TAM-AT1-AT2 Baz2B R837E
  Kd: 108 ± 9.3 nM
TAM-AT1-AT2 Baz2B L766A
  Kd: 98.1 ± 29.5 nM
TAM Baz2B
  Kd: 468 nM
TAM-AT1-AT2 Baz2B R760E
  Kd: 93.6 ± 38.2 nM
TAM-AT1-AT2 Baz2B [5]
  Kd: 116 ± 50.9 nM
